Assay results as given in PMC6746150, “Long-Term Local Injection of RAGE-Aptamer Suppresses the Growth of Malignant Melanoma in Nude Mice”.

Molecular target: V-domain RAGE (vRAGE) (human, UniProt Q15109 23-121)
Test: QCM (27 MHz); vRAGE immobilized; N = 3; 27-MHz QCM, vRAGE immobilized on sensor; buffer, salt, pH and temperature not stated (as described previously, ref 16)

Sequence of V-domain RAGE (vRAGE) (Q15109 23-121): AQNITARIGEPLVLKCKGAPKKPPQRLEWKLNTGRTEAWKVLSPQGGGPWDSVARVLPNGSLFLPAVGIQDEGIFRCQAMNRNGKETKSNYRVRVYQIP

B1: RAGE-aptamer (XNA)
DNA: CCTGATATGGTGTCACCGCCGCCTTAGTATTGGTGTCTAC
modifications: phosphorothioate nucleotides at capital letters: ccTgATATggTgTcAccgccgccTTAgTATTggTgTcTAc (DNA)
  Kd: 4.44 ± 0.56 nM
